Experimental data: the nanobody polyreactivity screen of Harvey et al. (2022)

Assay: yeast display, Sf9 membrane polyspecificity reagent, FACS + sequencing; frameworks hold sequencing errors
How it was run: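 After 36–48 hours of galactose induction, yeast (Saccharomyces cerevisiae BJ5465) displaying a synthetic nanobody library were stained at 4 °C for 1 hour with 10% biotinylated, detergent-solubilized Sf9 membrane reagent. Streptavidin microbeads enriched the stained cells before FACS sorting into low and high (top ~1%) gates on anti-HA and streptavidin fluorescence. Each clone's polyreactivity label reflects its gate of origin.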

Sequence	polyreactivity (PSR sort gate)
QVQLVESGGGIVQAGGSLRLSCAASGNTFYAYTMGWYRPAPGKERELVAAISSDGSTNYAVSVKGSVTISRDHAKNTVYLQLNCLKPEDTAVYYCAKYTSSRFEYDYWGHGTQVTVSS	low polyreactivity
QVQLVESGGGLVQAGGTLRLSCAASGITFDYNAMGWYRQAPGKERELVATISDTGSTNYADSVKGRFTISRDNAKNTVYLQMNSLKPEDTAVYYCAADGLGDYHPKWEYQEYDYWGQGTQVTVSS	low polyreactivity
QVQLVESGGGLVQAGRTLRLSCAASGFTFGRYAMGWYRQAPGKERELVAAISRNGGRTYYADSVKGRFTISRDNAMNTVYFQMNSLKPEDTAVYNCAADGYERKTAQYDYWGQGTQVTVSS	high polyreactivity
QVQLVESGGGLVQAGGSLRLSCAASGSTFRSYAMGWYRQAPGKERELVAVISSGDSTYYADSVKGRFTISRDNAKNTVYLQMNSLKPEDTAVYYSAADSYVLGRWYGYWGQGTQVTVSS	low polyreactivity
QVQLVESGGGLVQAGGSLRLSCAASGRIFLSYAIGWYRQAPGKERELVAAITSSGGSTYYADSVKGRFTISRDNAKNTVYFQMNSLKPEDTAVYYCAADYGDPRVNEYDYWGQGTQVTVSS	low polyreactivity
QVQLVESGGGLVQAGGSLRLSCAASGLTFVVYAMGWYRQAPGKERELVASITSSGGRTYYADSVKGRFTISRDNAKNTVYLQMNSLKPEDTAVYYCNKYTWWLGSVDYWGQGTQVTVSS	high polyreactivity
QVQLQESGGGLLLAGGSLRLSCSASGNISVYGSMGWYRQAPGKEREFVATIDPGTNTNYADSVKDRFTISRDNAKNTVYLQMNSLKPEDTAVYYCAVEAGSDWPYRYWGQGTQVTVSS	low polyreactivity
QVQLVESGGGLVQAGGSLRLTCAASGRTFTRYAMGWYRQAPGKERELVAAISGGGGSTYYADSVKGRFTISRDNAKNTVYLQMNSLKPEDTAVYYCNAAARGSSFDYWGQGTQVTVSS	low polyreactivity
QVQLVESGGGLVQAGGSLRLSCAASGRTFPRNGMGWYRQAPGTERELVAAISWSGGRTYYADSVKGRFTISRDNAKNTVYLQMNSLKPEDTAVYYCNALYFRKGGYWGQGTQVTVSS	high polyreactivity
QVQLVESGGGLVQAGGSLRLSCAASGATFGYYAMGWYRQAPGKEMEFVARITQRGSRTYYADSVKGRFTISRDNAKNTVYLQMNSLKPEDTAVYYCDAEVWWTHNGRGAYGYDYWGQGTHVTVSS	high polyreactivity
QVQLVESGGGLVQAGGSLRLSCAASGGTGARNAMGWYRQAPGKERELVATITRRAGTTYYADSVKGRFTISRDNAKNTVYLQMNSLKPEDTAVYYCARVATWGYYPYLIPEVGYDYWGQGTQVTVSS	high polyreactivity
QVHLVESGGGLVQAGGSLRLICAATGFIFGSYAMGWYRQAPGKERELVAAINWSGGNTYYADSVKGRFTISRDNEKNTVYLQMNSLKPEDTAVYYCAAQYVTSRFDYWGQGTQVTVSS	high polyreactivity
QVQLVESGGGLVQAGGSLRLSCAASGLTFSTNAMGWYRQAPGKEREFVAAISFNGGSTYYADSVKGRFTISRDNAKNTVYLQMNSLKPEDTAVYYWNAVKYRYLEYNYWGQGTQVTVSS	high polyreactivity
QVQLVESGGGLVQAGCSLRLSCAASGSIFRAYAMGWYRHAPGKERELVAGISGSGGSTYYADSVKGRFTISRDNAKNTVYLQMNSLKPQDTAVYYCAKALSTYQRTGCYDYWGQGTQVTVSS	high polyreactivity
QVQLVESGGGLVQAGGSLRLSCAASGRTFSRNAMGWYRHAPGKEWELVAAISRTGGSTYYADSVKGRFTISRDNAKKTVYLQMNSLKPEDTAVYYCAAGTWGWYAYGYWGLGTQVTVSS	high polyreactivity
QVQLVESGGGLVQAGGSLRLSCAASGSIFNYYAMGWYRQAPGKERELVATISSGGNTKYADSVKGRFTISRDNAKNTVYLQMNSLKPEDTAVYYCAARWQHSGYRDRYWYDYWGQGTQVTVSS	low polyreactivity
QVQLVESGGGLVQAGGSLRLSCAASGRTLGLYAMGWYRQAPGKERELVAAITTSGGSTSYADSVKGRFTISRDNAKNTVYLQMNSLKPEDTAVYYCAARYLSYITGTSYYWGQGTQVTVSS	low polyreactivity
QVQLVESGEGLVQAGGSLRLSCAASGITFFRNTMGWYRHAPGKERELVAAISKSGDNTYYADSVKVRFTISRDNAKNTVYLQMNSLKPEDTAVYYCNKAYRKFYYGYDYWGQGTQVTVSS	high polyreactivity
QVQLVESGGGLVQAGGSLRLSWAASGSTLSLYAMGWYRQAPGKERELVAAITSSGGTYYADSVKGRFTISRDNAKNTVYLQMNSLKPEVTAVYYCNAYAKDARSYGYHRVNYWGQGTQVTVSS	high polyreactivity
HEQLQESGGGLVQAVGSLRLSCAASGHISRSSTMGWYRQAPGKERELVTAITRGTNTNYADSVKGRFTISRDNAKNSEYLQMNSLKPEDTAVYYCAAYGVLKPSRGDAVFHRYWGQGTQVTVSR	low polyreactivity
QVQLVESGGGLVQAGRSLRLSCAASGRIIYGYPMGWYRQAPGIERELVAAITATYYADSVKGRFTISRDNAKNTVYLQMNSLKPEDTAVYYCNAYLSPKQPLSPPDPTFEGGYWGQGTQVTVST	low polyreactivity
QVQLVESGGGLVQAGGSLRLSCAASGRIFDRYAMGWYRLAPGKERELVAAITTSSGGSTYYADSVKGRFTISRDNAMNTVYLQMQSLNPEDTAVYYCAADRRYNVIGEFGYWGQVTQVTVSS	low polyreactivity

Sequence	polyreactivity (PSR sort gate)
HVQLVESGGGLVQAGGRLRLSCAASASIFDSNAMGWYRQAPGKERELVADIRGIGGSTYYADSVKGRFTISRDNAKNTVYLQMNSLKPEDTAVYYCNTSTLGGYYWGQGTQVTVSS	low polyreactivity
QVQLVESGGGLVQAGGSLRLSCAASGSTFFVNAMGWYRQAPGKERELVASITVSSGRTYYADSVKGRFTISRDNAKNTVYLQMNSLKPEDTAVYYCAARHLYWRREGYYWGQGYQVTVSS	high polyreactivity
QVQLVESGGGLVQAGGSLRLSCAASGNIFGIYTMGWYRQAPGKEREFFAVISLSGTSTYYADSVKGRFTISRDNAKNTVYLQMNSLKPEDTAVYYCNARTPHNKGRRRAYDYWGLGTQVTVSS	high polyreactivity
QVQLVESGGGLVQAGGSLRLSCAASGSTFFGYDMGWYRQAPGKERELVATINSGGSTYYADSVKGRFTISRDNAKNTVYLQMNSLKPEDTAVYYCAARPSYLYPYDRTGEYDYWGQGTQVTVSS	high polyreactivity
QVQLVESGGALVQAGGSIRLSCAASGRIFLHYAMGWYRQAPGKERELVAAISSSGGSTYYADSVKGRFTISRDNAKNTVYLQMKSLKPEDTAVYYCAAAYPVKTTEGYYYWGQGTHVTVSS	high polyreactivity
QVQLEESGGGLVQAGGSLRLSCAASGITIWGYTMGWYRQAPGKERELVAAITSTGSTYYADSVKGRFTISRDNAKNTVYLQMNSLKPEDTSVYYCAATRGSSEYYYWGQGTQVTVSS	low polyreactivity
QVQLVESGGGLVQAGGSLRLSCAASGSIFVYNAMGWYRQAPGKEMELVASITWSGGRTYYADSVKGRFTISRDHAKNTVYLQMNSLKPEDTAVYYCNKRQYSRTFRYGYWGQGTQVTLSS	high polyreactivity
QVQLVESGGGLVQAGGSLRLSCAASGYTFKAYAMGWNIQAPGKERELVAAISWSGARTYYAYSVKGRFTISRDNAKNTVYLEMNRLKPEYTAVYYCAASNAVYAGRSYRDEYWGQGTQVTVSS	high polyreactivity
QVQLVESGAGLVQEGGRLRLRCAASGFTFMDNAMGCYRKAPGKETQLVAAISRSGGSTYYADSVKGRFTISRDNAKNTVYLQMKSLKPEDTEGFYCAAFLYRSQYSGFEYWGQGTQVTVSS	high polyreactivity
QVQHVESGGGLVQAGGSLPLSCAASGFIFTSNSMGWYRQAPGKESEFVAAITSGGITYYADSVKGRFTISRDNAKNTVYLQMNSLKPEDTAVYYCAAVLSYQTPKYYRWRYGYWGQGTQVTVSS	low polyreactivity
QVQHVESGGGLVQAGGSLRLSCAASGRTFRWYAMGWYRHAPGKERELVAGISRGGGSTTYADSVKGRFTISRDYAKNTVYLQMNSLKPEDTAVYYCAAYWGRTRYYGYDYYYWGQGTQLTVSS	high polyreactivity
QVQLVESGGGLVQAGGSLRLSCAASGFTFYYYAMGWYRQEPGKERELVAAISSRGGSTYYADSVKGRFTISRDNAKNTVYLQMNSLKREDTPVYYCAAVYKYGGATYRSTSYYYWGQGTQVTVSS	high polyreactivity
QVQLVESGGGLVQAGGSLRLSCAASGFTFAVYAMGWYRQAPGKEREFVADITYDGGSTYYADSVKGRFTISRDNAKNTVYLQMNSLKPEDTAVYYGAAERLGAFQTPSNVSKYYYWGQGSQVTVSS	low polyreactivity
QVQLVESGGGLVQAGGSLRLSCAASGRISVRNAMGWYRQAPGKERELVATIRSGGSTNYADSVKGRFTISRDNAKNTVYLQMYSLKPEDTAVYYCATAKLTWRSQGLDYWGQGTQVTVSS	low polyreactivity
QVQLVESGGGLVQAGGSLRLSCAASGSTIIRNTMGWYRKAPGKERELVAAITRSGGSTFYADSVKGRFTISRDNAKNTVYLQMNSLKPEDTAVYYCAAVRSKLYYYWGQGTQVTVSS	high polyreactivity
QVQLVESGGGLVQAGGSLRLSCAASGFIFQKYAMGWYRQAPGKERELVAAISRSGGSTYYADSVKGRFTISRDNAKNTDYLQMNSLKPEDTAVYYCAARYKGRAFWMDYWGQGTQVTVSS	high polyreactivity
QVQHVESGGGLVQAGGSLRLSCAASVRTFYTYAMGRDRQAPGKERELVAAISLSGTRTYYADSVKGRFTISRDNAKNTVYLQMNSLNPEDTAVYYCAADRFNKPYYYWGQGTQVTVSS	high polyreactivity
QVQLVESGGGLVQAGGSLRLSCAASGSIFSYYDMGWYRQAPGKERELVAAITTGGSTNYADSVKGRFTISRDNAKNTVYLQMNSLKPEDTAVYYCNAGRWWSRGYGYWGQVTQVTVSS	high polyreactivity
QVQLVESGGGLVQAGGSLRLSCAASGSIFVYNDMGGYRQAPGKERELVAGIDWSGDRTYADSVKGRFTISRDNAKNTVYLQMNSLKPEDTAVYYCIADEWRWDEILPYAVDYWGQGTQVTVSS	low polyreactivity
QVQLVESGGGLVQAGGSLRLSCAASGSTFSCNSMGWYRQAPGKERELVAAITSGGSTNYADSVKGRFTISRDNAKNTVFLQMNSLKPEDTAVYYCAKRYGYRRYYTASDYWGQGTQVTVSS	low polyreactivity
QVQLVESGGGLVQAGGSLRLSCAASGSTFFRNAMGWYRQAPGKERELVAGITSGVTTYYADSVKGRFTISRDNAKNTVYLQMNSLKPEDTAVYYCAVYWRGRGAFTYGSWGQGTQVTVSS	high polyreactivity
